Substitutions are numbered along the chain they refer to. Each block holds one binder with its values, some of them ahead of it.
How the values were obtained:
[1] = biological target: human CD47-Fc (human); assay: SPR
[2] = biological target: CD47 on Raji cells (human, UniProt Q08722); assay: FACS, Raji cells, 4C
CD47 on Raji cells, sequence (Q08722 19-323): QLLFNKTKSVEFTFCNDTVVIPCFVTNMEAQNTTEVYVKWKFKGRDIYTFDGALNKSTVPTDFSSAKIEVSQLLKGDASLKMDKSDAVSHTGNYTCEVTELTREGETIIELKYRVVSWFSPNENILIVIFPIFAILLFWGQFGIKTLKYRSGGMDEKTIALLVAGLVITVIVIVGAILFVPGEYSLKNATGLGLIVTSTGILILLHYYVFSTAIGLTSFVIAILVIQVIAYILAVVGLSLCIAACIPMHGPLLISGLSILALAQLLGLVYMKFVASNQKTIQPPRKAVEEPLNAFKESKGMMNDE

human CD47-Fc (human), sequence (chain, as listed by the source): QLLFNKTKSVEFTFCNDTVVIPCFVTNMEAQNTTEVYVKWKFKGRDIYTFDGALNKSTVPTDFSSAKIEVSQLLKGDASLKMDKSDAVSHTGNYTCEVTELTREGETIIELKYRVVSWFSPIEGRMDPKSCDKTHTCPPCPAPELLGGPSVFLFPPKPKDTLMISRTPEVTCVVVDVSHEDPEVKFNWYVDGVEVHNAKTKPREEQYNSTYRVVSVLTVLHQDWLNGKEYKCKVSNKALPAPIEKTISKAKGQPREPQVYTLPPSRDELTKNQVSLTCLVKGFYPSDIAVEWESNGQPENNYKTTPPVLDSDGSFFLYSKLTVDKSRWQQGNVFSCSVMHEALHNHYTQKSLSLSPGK

Kd [1]: 0.813 nM
EC50 [2]: 20.9 nM
B1: DARPin protein #2 (designed binder)
chain: DLGIKLLHAAFQGQDDEVRILLAAGADVNAKDKVGRTPLHRAAQWGHLEIVEVLLKAGADVNAKDHVGWTPLHLAAWRGHLEIVEVLLKAGADVNAQDASGFTPADLAARQGHEDIAEVLQKAA

Kd [1]: 0.562 nM
EC50 [2]: 58.4 nM
B2: DARPin protein #3 (designed binder)
chain: DLGRKLLQAAARGQDDEVRELLKAGADVNAKDLHGRTPLHLAAAIGHLEIVEVLLKAGADVNAKDFLGWTPLHIAAFRGHLEIVEVLLKAGADVNAQDEAGETPADLAAQEGHEDIAEVLQKAA

Kd [1]: 0.24 nM
EC50 [2]: 48 nM
B3: DARPin protein #6 (designed binder)
chain: B2 chain with F66V, L67F, W69Y, A100R, Q110E, E111A

Kd [1]: 0.328 nM
EC50 [2]: 40.4 nM
B4: DARPin protein #1 (designed binder)
chain: ALGKKLLQAAARGQDDEVRELLKAGADVNAKDLIGRTPLHLAASIGHLEIVEVLLKAGADVNAKDSRGWTPLHIAAVSGHLEIVEVLLKAGADVNAQDRAGATPADLAAAEGNEDIAEVLQKAA

Kd [1]: 0.244 nM
EC50 [2]: 74.7 nM
B5: DARPin protein #4 (designed binder)
chain: DLGKKLLQAAARGQDDEVRELLKAGADVNAKDLKGRTPLHLAAATGHPEIVEVLLKAGADVNAKDQFGYTPLHIAAAWGHLEIVEVLLKAGADVNAQDQKGETPADLAAKEGHEDIAEVLQKAA

Kd [1]: 0.552 nM
EC50 [2]: 45.5 nM
B6: DARPin protein #5 (designed binder)
chain: DLGRKLLQAAARGQDDEVRELLKAGADVNAKDLLGRTPLHLAASIGHLEIVEVLLKAGADVNAKDERGFTPLHIAALQGHLEIVEVLLKAGADVNAQDLEGRTPADLAAEEGHEDIAEVLQKAA

Kd [1]: 0.102 nM
EC50 [2]: 17.2 nM
B7: DARPin protein #8 (designed binder)
chain: B6 chain with R4K, E66S, I74L, L77I, Q78I, E100K, R102L, E110A

Kd [1]: 0.352 nM
EC50 [2]: 28.5 nM
B8: DARPin protein #7 (designed binder)
chain: B6 chain with R4E, Q8K, F69Y, L77I, Q78V, L99A, E100R, R102A, E110R

Source: patent US20260297190 (published 2026)
